In PMC10526831, “SUPPRESSOR OF MAX2 LIKE 6, 7, and 8 Interact with DDB1 BINDING WD REPEAT DOMAIN HYPERSENSITIVE TO ABA DEFICIENT 1 to Regulate the Drought Tolerance and Target SUCROSE NONFERMENTING 1 RELATED PROTEIN K”:

T1: GST-SMXL6 (Arabidopsis thaliana, UniProt Q9LML2 1-979)
T1 sequence: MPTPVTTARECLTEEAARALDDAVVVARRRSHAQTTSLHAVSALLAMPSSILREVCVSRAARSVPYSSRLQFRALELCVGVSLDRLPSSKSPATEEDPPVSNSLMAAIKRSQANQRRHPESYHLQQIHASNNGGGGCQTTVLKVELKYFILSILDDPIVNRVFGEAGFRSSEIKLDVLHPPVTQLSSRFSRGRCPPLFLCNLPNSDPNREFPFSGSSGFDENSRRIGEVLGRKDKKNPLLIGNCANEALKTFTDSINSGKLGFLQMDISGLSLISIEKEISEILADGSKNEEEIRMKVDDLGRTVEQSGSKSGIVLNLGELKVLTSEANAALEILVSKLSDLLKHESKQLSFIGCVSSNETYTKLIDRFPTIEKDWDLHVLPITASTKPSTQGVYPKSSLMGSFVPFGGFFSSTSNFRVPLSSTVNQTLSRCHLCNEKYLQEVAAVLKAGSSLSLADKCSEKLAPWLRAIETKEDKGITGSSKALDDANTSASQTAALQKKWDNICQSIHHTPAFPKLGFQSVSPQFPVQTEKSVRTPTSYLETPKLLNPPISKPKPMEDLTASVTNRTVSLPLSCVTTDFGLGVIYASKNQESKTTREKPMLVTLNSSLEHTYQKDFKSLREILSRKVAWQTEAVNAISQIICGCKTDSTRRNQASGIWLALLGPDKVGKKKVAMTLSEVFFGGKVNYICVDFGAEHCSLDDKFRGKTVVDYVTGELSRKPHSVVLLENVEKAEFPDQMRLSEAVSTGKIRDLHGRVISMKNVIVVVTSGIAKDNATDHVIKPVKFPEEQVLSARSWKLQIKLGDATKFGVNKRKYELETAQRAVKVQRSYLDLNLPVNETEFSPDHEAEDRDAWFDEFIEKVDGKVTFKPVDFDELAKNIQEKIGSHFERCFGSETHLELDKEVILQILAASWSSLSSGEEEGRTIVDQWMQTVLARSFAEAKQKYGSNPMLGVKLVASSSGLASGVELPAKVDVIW

T2: GST-SMXL8 (Arabidopsis thaliana, UniProt F4IGZ2 1-910)
T2 sequence: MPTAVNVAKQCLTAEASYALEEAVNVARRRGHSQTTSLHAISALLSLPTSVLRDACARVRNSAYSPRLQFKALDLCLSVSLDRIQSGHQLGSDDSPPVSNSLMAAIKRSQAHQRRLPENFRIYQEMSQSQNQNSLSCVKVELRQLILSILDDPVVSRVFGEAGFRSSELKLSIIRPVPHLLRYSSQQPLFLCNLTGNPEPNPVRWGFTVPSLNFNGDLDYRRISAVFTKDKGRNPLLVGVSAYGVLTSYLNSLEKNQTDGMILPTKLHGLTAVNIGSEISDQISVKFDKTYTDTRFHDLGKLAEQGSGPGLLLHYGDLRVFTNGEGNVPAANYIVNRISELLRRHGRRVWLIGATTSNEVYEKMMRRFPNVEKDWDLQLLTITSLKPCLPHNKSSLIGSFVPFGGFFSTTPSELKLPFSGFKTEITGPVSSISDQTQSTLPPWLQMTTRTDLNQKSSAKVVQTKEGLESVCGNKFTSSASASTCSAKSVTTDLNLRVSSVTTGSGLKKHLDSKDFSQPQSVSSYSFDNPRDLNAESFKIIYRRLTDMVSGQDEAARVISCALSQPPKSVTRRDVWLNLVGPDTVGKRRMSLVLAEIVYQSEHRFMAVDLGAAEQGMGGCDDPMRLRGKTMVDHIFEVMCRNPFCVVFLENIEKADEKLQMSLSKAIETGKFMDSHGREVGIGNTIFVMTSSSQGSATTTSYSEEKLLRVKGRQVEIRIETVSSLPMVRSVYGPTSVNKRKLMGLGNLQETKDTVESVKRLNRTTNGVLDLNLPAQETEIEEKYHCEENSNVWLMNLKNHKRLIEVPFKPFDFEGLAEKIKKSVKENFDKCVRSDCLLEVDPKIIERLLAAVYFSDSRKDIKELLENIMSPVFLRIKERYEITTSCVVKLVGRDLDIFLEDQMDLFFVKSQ

T3: GST-SMXL7 (Arabidopsis thaliana, UniProt O80875 1-1002)
T3 sequence: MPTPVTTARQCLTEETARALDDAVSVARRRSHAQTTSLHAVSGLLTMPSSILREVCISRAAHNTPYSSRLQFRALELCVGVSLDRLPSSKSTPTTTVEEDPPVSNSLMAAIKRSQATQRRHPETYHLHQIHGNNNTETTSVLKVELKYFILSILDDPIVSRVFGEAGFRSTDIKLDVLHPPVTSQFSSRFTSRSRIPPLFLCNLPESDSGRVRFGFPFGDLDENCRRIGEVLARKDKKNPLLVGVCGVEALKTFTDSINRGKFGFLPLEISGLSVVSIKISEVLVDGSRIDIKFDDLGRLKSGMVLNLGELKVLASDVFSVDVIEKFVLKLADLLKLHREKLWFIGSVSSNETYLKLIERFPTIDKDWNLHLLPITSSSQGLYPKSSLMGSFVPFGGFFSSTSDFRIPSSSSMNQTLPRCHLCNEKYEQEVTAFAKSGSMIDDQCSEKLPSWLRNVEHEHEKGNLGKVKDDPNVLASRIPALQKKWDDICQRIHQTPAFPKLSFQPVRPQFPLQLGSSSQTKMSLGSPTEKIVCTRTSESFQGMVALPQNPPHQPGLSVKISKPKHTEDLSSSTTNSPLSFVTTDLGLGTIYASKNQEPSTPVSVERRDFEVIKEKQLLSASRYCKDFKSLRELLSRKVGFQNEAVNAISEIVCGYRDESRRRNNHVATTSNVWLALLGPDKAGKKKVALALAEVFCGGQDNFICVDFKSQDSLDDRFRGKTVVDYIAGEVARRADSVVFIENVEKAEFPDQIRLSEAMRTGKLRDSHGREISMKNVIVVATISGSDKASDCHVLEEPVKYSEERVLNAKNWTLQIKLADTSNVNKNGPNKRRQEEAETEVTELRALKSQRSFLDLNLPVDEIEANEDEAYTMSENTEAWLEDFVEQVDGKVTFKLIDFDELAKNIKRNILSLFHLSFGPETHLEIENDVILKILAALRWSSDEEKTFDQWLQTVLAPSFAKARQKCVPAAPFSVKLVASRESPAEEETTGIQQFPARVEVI

B1: SnRK2.6 promoter p2.6-3-1-1-a (dsDNA)
DNA 1: GACATTTGTGGTAACTTGTTTTTCTTTTATTTTCCGTTTTTAAATGCGGAAACCCTT
DNA 2: AAGGGTTTCCGCATTTAAAAACGGAAAATAAAAGAAAAACAAGTTACCACAAATGTC
B2: SnRK2.3 promoter p2.3-3-1-2-a (dsDNA)
DNA 1: CTTGGGGCAACCAATTATTGCCTTTTTTCTTCCTCTCTTTCCTTATTCGTT
DNA 2: AACGAATAAGGAAAGAGAGGAAGAAAAAAGGCAATAATTGGTTGCCCCAAG

Assays:
Test in all cases: EMSA; 25x unlabeled probe as competitor; 1 ug protein, 20 uL reaction, room temperature 30 min; 6% native PAGE in 0.5x TBE; binding buffer, salt and pH not given
Conditions in all cases: protein: recombinant; tags: N-terminal GST (pGEX-6P-1); label: biotin; blunt
[1] = target: T1, GST-SMXL6
[2] = target: T2, GST-SMXL8
[3] = target: T3, GST-SMXL7

Binder | binding result [1] | binding result [2] | binding result [3]
B1 | binds | binds | 
B2 | binds | binds | binds
